{
  "source": "paper PMC9935546",
  "molecular_target": "T1, endogenous VDAC2 (voltage-dependent anion-selective channel protein 2) (human (endogenous in HONE1 and SUNE1)), P45880",
  "T1 chain": "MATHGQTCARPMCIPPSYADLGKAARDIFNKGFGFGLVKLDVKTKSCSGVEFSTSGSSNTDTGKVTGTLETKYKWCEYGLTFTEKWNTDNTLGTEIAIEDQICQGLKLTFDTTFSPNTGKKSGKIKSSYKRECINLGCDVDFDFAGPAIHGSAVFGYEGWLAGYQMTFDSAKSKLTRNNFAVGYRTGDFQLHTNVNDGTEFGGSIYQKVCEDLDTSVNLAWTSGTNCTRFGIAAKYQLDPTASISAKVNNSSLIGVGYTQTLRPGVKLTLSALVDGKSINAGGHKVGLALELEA",
  "experiment": "cross-linking; NPC cells in PBS with 5 mM DSS, 37 °C, 30 min, quenched with 20 mM Tris-HCl; Western blot; 24 h after IR; WT and TRIM21-KO cells",
  "settings": "remark: other sources report otherwise",
  "data": [
    {"binder": "endogenous VDAC2 (voltage-dependent anion-selective channel protein 2), P45880 1-294 (natural protein) MATHGQTCARPMCIPPSYADLGKAARDIFNKGFGFGLVKLDVKTKSCSGVEFSTSGSSNTDTGKVTGTLETKYKWCEYGLTFTEKWNTDNTLGTEIAIEDQICQGLKLTFDTTFSPNTGKKSGKIKSSYKRECINLGCDVDFDFAGPAIHGSAVFGYEGWLAGYQMTFDSAKSKLTRNNFAVGYRTGDFQLHTNVNDGTEFGGSIYQKVCEDLDTSVNLAWTSGTNCTRFGIAAKYQLDPTASISAKVNNSSLIGVGYTQTLRPGVKLTLSALVDGKSINAGGHKVGLALELEA", "values": [
      {"measurement": "stoichiometry N", "value": "> 3"}
    ]}
  ]
}
